Results from article PMC3682478.

Key:
Assay in all cases: kinetic pause assay
[1] = target: NusA NTD;RNA polymerase core (Escherichia coli;Escherichia coli, UniProt P0AFF6;P0A7Z4;P0A8V2;P0A8T7 1-137;1-329;1-1342;1-1407, |)
[2] = target: NusA NTD-S1;RNA polymerase core (Escherichia coli;Escherichia coli, UniProt P0AFF6;P0A7Z4;P0A8V2;P0A8T7 1-200;1-329;1-1342;1-1407, |)
[3] = target: NusA NTD-S1-KH;RNA polymerase core (Escherichia coli;Escherichia coli, UniProt P0AFF6;P0A7Z4;P0A8V2;P0A8T7 1-348;1-329;1-1342;1-1407, |)
Chain of NusA NTD-S1-KH;RNA polymerase core (P0AFF6 1-348, chain 1 of 4): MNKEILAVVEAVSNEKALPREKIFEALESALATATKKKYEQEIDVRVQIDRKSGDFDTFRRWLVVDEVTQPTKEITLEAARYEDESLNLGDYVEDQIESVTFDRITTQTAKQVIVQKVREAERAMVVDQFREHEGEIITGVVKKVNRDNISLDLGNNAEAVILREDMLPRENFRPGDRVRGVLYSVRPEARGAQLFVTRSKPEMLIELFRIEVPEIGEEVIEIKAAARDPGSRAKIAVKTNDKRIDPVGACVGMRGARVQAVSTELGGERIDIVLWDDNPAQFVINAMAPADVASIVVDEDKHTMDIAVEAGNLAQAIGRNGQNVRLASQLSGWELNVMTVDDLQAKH
Chain of NusA NTD-S1-KH;RNA polymerase core (P0A7Z4 whole entry, chain 2 of 4): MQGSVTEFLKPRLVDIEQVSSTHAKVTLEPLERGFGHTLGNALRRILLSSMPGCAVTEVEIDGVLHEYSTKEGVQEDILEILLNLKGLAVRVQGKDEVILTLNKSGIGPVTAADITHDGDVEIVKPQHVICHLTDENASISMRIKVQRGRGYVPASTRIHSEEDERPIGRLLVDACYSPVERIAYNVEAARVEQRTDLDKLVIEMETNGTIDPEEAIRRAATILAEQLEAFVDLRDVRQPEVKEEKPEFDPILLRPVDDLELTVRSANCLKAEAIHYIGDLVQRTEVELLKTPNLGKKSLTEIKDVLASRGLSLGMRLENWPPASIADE
Chain of NusA NTD-S1-KH;RNA polymerase core (P0A8V2 whole entry, chain 3 of 4): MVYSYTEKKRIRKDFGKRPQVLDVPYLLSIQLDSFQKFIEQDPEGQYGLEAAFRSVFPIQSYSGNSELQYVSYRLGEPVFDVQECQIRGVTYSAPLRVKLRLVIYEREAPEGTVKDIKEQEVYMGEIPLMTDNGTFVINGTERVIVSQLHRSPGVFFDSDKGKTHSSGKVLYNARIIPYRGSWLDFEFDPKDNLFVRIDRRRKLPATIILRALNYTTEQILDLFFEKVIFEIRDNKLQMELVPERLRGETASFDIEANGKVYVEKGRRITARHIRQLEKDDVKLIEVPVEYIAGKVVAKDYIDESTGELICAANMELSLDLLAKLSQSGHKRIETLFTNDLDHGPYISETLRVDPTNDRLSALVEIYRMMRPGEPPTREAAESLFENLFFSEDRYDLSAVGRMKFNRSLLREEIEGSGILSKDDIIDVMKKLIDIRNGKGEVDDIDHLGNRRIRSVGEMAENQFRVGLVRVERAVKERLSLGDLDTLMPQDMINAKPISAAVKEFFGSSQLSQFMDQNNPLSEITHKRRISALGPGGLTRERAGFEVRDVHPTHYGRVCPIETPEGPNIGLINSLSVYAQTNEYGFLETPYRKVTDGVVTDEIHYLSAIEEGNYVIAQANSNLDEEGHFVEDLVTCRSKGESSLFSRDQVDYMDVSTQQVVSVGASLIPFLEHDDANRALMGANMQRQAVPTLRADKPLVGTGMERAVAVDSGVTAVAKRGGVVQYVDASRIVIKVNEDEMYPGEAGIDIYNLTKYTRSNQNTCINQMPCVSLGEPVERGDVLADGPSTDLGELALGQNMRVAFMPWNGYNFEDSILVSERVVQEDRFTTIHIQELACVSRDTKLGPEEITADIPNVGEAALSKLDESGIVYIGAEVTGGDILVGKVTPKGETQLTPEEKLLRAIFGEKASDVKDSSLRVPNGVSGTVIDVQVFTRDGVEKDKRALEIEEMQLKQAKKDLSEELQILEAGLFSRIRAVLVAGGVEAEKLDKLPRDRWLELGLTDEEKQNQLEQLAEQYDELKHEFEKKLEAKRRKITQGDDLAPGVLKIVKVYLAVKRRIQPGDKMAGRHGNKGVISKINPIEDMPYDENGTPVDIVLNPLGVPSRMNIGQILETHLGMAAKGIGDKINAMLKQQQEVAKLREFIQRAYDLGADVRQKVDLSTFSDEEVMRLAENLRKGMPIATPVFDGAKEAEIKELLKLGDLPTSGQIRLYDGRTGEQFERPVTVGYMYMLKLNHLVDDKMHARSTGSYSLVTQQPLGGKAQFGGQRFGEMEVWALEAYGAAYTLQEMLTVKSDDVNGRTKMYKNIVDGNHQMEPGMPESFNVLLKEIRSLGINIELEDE
Chain of NusA NTD-S1-KH;RNA polymerase core (P0A8T7 whole entry, chain 4 of 4): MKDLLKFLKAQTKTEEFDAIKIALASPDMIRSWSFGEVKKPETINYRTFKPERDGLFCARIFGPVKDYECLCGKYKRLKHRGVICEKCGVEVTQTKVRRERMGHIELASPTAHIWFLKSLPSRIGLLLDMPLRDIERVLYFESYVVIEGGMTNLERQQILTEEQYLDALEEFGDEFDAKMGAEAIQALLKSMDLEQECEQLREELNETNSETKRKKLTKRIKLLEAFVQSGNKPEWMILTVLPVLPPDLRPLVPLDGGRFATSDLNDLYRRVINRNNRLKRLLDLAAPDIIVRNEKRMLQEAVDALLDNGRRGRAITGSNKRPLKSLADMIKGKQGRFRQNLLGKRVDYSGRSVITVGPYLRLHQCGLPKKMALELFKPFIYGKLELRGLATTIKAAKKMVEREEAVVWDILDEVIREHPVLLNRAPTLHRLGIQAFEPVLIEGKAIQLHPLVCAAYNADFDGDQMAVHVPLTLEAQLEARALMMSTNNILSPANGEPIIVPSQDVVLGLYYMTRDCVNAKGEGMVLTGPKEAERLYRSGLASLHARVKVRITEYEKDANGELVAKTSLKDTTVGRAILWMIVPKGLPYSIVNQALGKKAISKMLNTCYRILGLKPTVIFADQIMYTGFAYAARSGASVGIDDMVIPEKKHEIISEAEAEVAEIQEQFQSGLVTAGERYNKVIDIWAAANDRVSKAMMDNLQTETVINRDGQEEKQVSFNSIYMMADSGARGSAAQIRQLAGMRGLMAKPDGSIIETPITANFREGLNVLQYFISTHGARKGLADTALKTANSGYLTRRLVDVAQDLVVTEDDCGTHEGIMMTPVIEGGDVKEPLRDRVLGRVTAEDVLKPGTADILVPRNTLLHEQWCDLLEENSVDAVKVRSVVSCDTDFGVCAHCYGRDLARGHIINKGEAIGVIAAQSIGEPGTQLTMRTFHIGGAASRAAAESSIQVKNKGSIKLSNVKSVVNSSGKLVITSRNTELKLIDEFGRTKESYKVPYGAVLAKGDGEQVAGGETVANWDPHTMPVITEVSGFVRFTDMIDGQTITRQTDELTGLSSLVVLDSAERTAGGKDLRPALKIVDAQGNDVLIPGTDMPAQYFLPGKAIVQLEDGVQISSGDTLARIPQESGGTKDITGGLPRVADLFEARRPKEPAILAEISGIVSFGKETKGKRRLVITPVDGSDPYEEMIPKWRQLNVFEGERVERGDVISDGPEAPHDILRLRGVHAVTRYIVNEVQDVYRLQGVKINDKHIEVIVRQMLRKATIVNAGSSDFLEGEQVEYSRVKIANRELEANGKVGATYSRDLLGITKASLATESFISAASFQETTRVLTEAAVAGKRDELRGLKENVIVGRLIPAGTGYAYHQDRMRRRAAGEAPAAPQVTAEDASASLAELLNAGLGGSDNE

B1: his PTC scaffold (RNA at U29) (mixed)
DNA 1: GGTCAGTACGTCCATTCGATCTTCGGAAGAGATTCAGAG
DNA 2: CTCTGAATCTCTTCCAGCACACATCAGGACGTACTGACC
RNA: CCUGACUAGUCUUUCAGGCGAUGUGUGCU
- Ki [1]: 55.4 ± 27.8 nM
- Ki [2]: 74.6 ± 19.4 nM
- Ki [3]: 11.8 ± 8.7 nM
